For this experiment, the target named is T1, Human nucleosome core particle (human histone octamer with the 147-bp Widom 601 DNA) (human, UniProt P68431 1-136; P62805 1-103; P04908 1-130; P06899 1-126).
T1 construct: also called recombinant human NCP; human NCP
As to the kind of experiment: ITC. To be noted: both partners purified.

Usually Kd stands for the concentration at which binding is half-saturated. On to HPMVTRSKADQ [IE1-CTD mutant lacking the N-terminal segment (Δ476–480)], for which binding was characterised by a dissociation constant (Kd) of 12 µM.

In turn, GGKSTHPMVTRSKADQ [IE1-CTD peptide (chromatin-tethering domain of hCMV IE1, a.a. 476–491)] came in with a Kd of 0.4 µM.

B1: Full-length hCMV (Towne) IE1 (natural protein)
chain: MESSAKRKMDPDNPDEGPSSKVPRPETPVTKATTFLQTMLRKEVNSQLSLGDPLFPELAEESLKTFERVTEDCNENPEKDVLAELVKQIKVRVDMVRHRIKEHMLKKYTQTEEKFTGAFNMMGGCLQNALDILDKVHEPFEEMKCIGLTMQSMYENYIVPEDKREMWMACIKELHDVSKGAANKLGGALQAKARAKKDELRRKMMYMCYRNIEFFTKNSAFPKTTNGCSQAMAALQNLPQCSPDEIMAYAQKIFKILDEERDKVLTHIDHIFMDILTTCVETMCNEYKVTSDACMMTMYGGISLLSEFCRVLSCYVLEETSVMLAKRPLITKPEVISVMKRRIEEICMKVFAQYILGADPLRVCSPSVDDLRAIAEESDEEEAIVAYTLATRGASSSDSLVSPPESPVPATIPLSSVIVAENSDQEESEQSDEEEEEGAQEEREDTVSVKSEPVSEIEEVAPEEEEDGAEEPTASGGKSTHPMVTRSKADQ
For the molecule B1, the “fold weaker binding than IE1-CTD alone” value was around 5 fold.

Source of the values: PMC4764553 (eLife, 2016).
